Source: patent US7423125
Where a chain is given by its changes, count along the chain named. Names and notes keep the numbering of the source.

B1: VEGF-C R226,227S (ligand)
chain: FESGLDLSDAEPDAGEATAYASKDLEEQLRSVSSVDELMTVLYPEYWKMYKCQLRKGGWQHNREQANLNSRTEETIKFAAAHYNTEILKSIDNEWRKTQCMPREVCIDVGKEFGVATNTFFKPPCVSVYRCGGCCNSEGLQCMNTSTSYLSKTLFEITVPLSQGPKPVTISFANHTSCRCMSKLDVYRQVHSIISSSLPATLPQCQAANKTCPTNYMWNNHICRCLAQEDFMFSSDAGDDSTDGFHDICGPNKELDEETCQCVCRAGLRPASCGPHKELDRNSCQCVCKNKLFPSQCGANREFDENTCQCVCKRTCPRNQPLNPGKCACECTESPQKCLLKGKKFHHQTCSCYRRPCTNRQKACEPGFSYSEEVCRCVPSYWKRPQMS
notes: The C-terminal cleavage site is destroyed; N-terminal processing may still occur; also called non-processed VEGF-C R226,227S
B2: Flt4 ligand of about 23 kD from PC-3 cell conditioned medium (naturally processed VEGF-C) (ligand)
chain: TEETIKFAAAHYNTEILKSIDNEWRKTQCMPREVCIDVGKEFGVATNTFFKPPCVSVYRCGGCCNSEGLQCMNTSTSYLSKTLFEITVPLSQGPKPVTISFANHTSCRCMSKLDVYRQVHSIIRR
notes: also called 23 kD polypeptide; 21-23 kD form (PC-3)
B3: VEGF-C ΔNΔCHis (ligand)
chain: TEETIKFAAAHYNTEILKSIDNEWRKTQCMPREVCIDVGKEFGVATNTFFKPPCVSVYRCGGCCNSEGLQCMNTSTSYLSKTLFEITVPLSQGPKPVTISFANHTSCRCMSKLDVYRQVHSIIHHHHHH
notes: the yeast protein was iodinated as tracer; also called VEGF-C ΔCΔNHis; recombinantly-matured VEGF-C
B4: VEGF-CΔNΔCHis C156S (ligand)
chain: B3 chain with C54S
notes: also called VEGF-CΔNΔCH is R156S (as printed once); VEGF-C ΔNΔC156S
B5: VEGF-CΔNΔCHis C165S (ligand)
chain: B3 chain with C63S
notes: also called C165S form
B6: VEGF-CΔNΔCHis C156,165S (ligand)
chain: B3 chain with C54S, C63S
notes: also called C156,165S form

What was measured:
[1] = target: T1, KDR (VEGFR-2) expressed on porcine aortic endothelial cells (UniProt P35968 20-1356, limits assumed); assay: competition with 125I-VEGF-CΔNΔCHis on PAE/VEGFR-2 cells
T1 construct: whole, on cells; also called KDR/Flk-1; PAE-KDR cells
T1 sequence (P35968 20-1356 limits assumed): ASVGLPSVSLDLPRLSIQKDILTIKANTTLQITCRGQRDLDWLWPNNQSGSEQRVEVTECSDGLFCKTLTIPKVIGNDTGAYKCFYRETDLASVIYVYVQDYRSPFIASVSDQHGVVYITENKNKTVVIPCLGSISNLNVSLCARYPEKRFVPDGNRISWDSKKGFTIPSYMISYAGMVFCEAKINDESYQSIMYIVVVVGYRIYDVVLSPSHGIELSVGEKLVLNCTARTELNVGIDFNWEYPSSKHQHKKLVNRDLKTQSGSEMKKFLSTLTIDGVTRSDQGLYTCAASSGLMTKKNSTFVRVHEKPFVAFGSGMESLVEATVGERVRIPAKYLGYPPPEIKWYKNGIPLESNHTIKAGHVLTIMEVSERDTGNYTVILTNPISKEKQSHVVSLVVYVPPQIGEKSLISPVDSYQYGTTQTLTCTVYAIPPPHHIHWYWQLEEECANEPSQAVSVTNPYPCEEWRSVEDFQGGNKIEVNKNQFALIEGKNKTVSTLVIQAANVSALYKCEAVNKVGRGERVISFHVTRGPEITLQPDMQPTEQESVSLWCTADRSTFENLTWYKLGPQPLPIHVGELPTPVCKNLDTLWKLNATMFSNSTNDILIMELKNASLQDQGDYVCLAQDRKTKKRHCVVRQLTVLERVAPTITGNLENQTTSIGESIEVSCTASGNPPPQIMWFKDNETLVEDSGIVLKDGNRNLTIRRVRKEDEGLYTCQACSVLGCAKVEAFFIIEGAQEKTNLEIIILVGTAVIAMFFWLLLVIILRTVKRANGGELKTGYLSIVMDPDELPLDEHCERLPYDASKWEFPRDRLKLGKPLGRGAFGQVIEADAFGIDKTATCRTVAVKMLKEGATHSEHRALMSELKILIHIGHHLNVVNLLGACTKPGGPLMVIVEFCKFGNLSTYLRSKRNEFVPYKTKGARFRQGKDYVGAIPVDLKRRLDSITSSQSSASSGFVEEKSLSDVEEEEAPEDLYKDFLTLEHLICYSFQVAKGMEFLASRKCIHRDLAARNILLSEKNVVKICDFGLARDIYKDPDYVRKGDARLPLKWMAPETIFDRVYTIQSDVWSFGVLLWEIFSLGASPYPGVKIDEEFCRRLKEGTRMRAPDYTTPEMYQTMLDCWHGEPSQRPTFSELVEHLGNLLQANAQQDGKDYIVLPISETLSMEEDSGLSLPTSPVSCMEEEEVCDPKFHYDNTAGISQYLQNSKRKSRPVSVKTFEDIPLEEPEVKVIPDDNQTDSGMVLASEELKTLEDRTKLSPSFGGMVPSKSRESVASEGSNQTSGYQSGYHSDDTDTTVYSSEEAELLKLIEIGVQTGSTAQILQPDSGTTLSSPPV
Procedure: (§1) To study receptor binding, PAE/VEGFR-2 and PAE/VEGFR-3 cells were seeded into 24-well tissue culture plates (Nunclon), which had been coated with 2% gelatin in PBS. […] The binding was allowed to proceed at room temperature for 90 minutes. The plates were then transferred onto ice and washed three times with ice-cold PBS containing 0.1% BSA. The cells were then lysed in 1 M NaOH, the lysates were collected, and the radioactivity was measured using a γ-counter.

[2] = target: T2, Flt4 extracellular domain with C-terminal 6×His tag (Flt4EC), baculovirus-produced (human, UniProt P35916 25-775); assay: depletion of conditioned medium on Flt4EC-Sepharose
T2 construct: extracellular domain; also called Flt4EC-Sepharose
T2 sequence: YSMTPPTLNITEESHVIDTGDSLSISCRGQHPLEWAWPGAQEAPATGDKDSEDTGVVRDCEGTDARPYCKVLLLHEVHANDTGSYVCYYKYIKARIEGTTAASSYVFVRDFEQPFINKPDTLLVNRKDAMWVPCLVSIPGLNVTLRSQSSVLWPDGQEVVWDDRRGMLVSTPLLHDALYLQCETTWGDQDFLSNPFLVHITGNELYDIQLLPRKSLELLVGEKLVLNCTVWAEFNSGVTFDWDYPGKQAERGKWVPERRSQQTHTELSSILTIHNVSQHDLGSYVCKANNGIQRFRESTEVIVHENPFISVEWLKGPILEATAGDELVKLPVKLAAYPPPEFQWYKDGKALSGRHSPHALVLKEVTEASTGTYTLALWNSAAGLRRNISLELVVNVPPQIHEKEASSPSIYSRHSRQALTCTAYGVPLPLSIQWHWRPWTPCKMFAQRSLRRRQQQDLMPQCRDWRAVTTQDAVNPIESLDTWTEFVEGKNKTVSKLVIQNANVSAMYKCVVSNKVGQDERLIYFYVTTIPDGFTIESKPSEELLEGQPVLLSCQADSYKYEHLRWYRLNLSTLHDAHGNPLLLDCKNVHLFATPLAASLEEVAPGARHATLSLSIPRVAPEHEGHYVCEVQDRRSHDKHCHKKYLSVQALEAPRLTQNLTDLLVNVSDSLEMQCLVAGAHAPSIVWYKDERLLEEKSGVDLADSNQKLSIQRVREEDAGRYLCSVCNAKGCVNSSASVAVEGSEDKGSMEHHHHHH

[3] = target: the molecule itself; assay: homodimer formation, chemical crosslinking
[4] = target: T1, KDR (VEGFR-2) expressed on porcine …; assay: Scatchard analysis with 125I-labelled ligand
Procedure: as §1

[5] = target: T3, Flt4 receptor tyrosine kinase (VEGFR-3) expressed on cells (human, UniProt P35916 25-1363); assay: Scatchard analysis with 125I-labelled ligand
T3 construct: whole, on cells; also called LTRFlt4l; NIH 3T3-Flt4 cells
Procedure: as §1

[6] = target: T4, VEGFR-2EC-Ig (three Ig loops of the VEGFR-2 extracellular domain fused to an immunoglobulin heavy chain … (UniProt P35968 20-327, limits assumed)); assay: pull-down of 35S-labelled protein with VEGFR-2EC-Ig
T4 construct: domain: three Ig loops of the extracellular domain; also called VEGFR-2EC domain; not shown: immunoglobulin heavy chain constant region, not specified
T4 sequence (P35968 20-327 limits assumed): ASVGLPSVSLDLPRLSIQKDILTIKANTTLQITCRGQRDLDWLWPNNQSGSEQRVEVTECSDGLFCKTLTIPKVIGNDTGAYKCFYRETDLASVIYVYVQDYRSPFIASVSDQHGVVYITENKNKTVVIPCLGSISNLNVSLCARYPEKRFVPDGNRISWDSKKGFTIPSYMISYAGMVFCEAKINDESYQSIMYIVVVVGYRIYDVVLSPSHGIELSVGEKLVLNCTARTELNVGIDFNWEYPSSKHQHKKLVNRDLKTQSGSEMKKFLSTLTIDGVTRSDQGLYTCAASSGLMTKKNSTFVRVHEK
Procedure: An aliquot of the transfected cells were metabolically labelled for 6 hours with 100 microcuries/ml of the PRO-MIX™ L-[^35S] in vitro cell labelling mix (Amersham).

[7] = target: T5, VEGFR-3EC-Ig (seven Ig loops of the VEGFR-3 extracellular domain fused to an immunoglobulin heavy chain … (UniProt P35916 25-775, limits assumed)); assay: receptor binding studies
T5 construct: domain: seven Ig loops of the extracellular domain; also called VEGFR-3EC domain; not shown: immunoglobulin heavy chain constant region, not specified
T5 sequence (looked up): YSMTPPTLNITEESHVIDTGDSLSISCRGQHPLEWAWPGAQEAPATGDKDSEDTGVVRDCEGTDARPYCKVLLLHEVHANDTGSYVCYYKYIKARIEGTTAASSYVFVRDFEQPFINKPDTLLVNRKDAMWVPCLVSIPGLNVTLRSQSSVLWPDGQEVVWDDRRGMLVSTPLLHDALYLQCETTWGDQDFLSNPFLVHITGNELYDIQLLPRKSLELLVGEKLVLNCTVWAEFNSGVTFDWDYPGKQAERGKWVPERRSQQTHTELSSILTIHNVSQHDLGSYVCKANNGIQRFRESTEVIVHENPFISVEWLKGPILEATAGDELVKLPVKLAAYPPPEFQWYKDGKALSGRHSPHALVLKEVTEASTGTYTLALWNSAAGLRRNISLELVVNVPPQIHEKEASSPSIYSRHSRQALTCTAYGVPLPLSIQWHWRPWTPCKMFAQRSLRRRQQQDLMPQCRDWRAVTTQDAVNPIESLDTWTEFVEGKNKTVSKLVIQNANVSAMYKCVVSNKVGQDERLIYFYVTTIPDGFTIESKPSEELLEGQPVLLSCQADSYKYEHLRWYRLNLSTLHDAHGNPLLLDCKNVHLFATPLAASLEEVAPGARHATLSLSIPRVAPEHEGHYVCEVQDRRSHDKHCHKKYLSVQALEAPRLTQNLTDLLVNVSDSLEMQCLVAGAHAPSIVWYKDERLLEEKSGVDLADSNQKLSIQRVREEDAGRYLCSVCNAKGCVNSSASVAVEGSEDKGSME

[8] = target: T4, VEGFR-2EC-Ig (three Ig loops of the …); assay: receptor binding studies
[9] = target: the molecule itself; assay: chemical crosslinking

| Binder | binding result [1] | binding result [3] | binding result [7] | binding result [8] | binding result [9] | also measured |
| --- | --- | --- | --- | --- | --- | --- |
| B1 | binds |  |  |  |  |  |
| B2 |  |  |  |  |  | binding result [2]: binds |
| B3 |  | binds |  |  |  | Kd [4]: 410 pM; Kd [5]: 135 pM |
| B4 | no binding | binds |  |  |  | binding result [6]: no binding |
| B5 |  |  | no binding | no binding | no binding |  |
| B6 |  |  | no binding | no binding | no binding |  |
